Results from paper PMC10716780, “The multistep oxidation of cholesterol to pregnenolone by human cytochrome P450 11A1 is highly processive” (The Journal of Biological Chemistry, 2023).
One block for each molecule: values may come before it.

Experiments:
human P450 11A1 [1] = molecular target: T1, human P450 11A1 (Homo sapiens, UniProt P05108); experiment: Steady-state kinetic assay with [1,2-3H]-cholesterol (radio-HPLC); type: biochemical; parameters: M A S T R S P R P F N E I P S P G D N; Met-Ala (N-terminal start residues in place of the transit peptide and Ile40) (N); made in house; host or cells: E. coli (P450 11A1 in C41(DE3); Adx and AdR in E. coli); conditions: ^3H-cholesterol substrate, triplicate
T1 sequence (P05108 41-521 limits assumed): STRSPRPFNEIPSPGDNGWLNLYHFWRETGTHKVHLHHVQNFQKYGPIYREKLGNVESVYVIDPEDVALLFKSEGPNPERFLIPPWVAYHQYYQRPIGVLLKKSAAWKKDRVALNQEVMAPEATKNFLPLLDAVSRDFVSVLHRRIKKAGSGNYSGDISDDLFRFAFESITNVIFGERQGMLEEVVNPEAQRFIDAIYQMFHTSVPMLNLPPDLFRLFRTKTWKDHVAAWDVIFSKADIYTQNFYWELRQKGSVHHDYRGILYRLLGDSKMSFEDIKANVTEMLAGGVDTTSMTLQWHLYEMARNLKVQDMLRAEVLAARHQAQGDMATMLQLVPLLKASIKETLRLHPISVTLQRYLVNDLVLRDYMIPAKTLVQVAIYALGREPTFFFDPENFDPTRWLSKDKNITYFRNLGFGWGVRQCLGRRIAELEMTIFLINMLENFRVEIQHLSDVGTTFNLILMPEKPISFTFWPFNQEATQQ
T1 sequence (P00257 59-186 partner): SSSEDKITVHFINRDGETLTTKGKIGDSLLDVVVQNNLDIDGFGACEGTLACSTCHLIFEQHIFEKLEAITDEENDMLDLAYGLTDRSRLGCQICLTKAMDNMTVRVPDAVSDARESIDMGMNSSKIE
Description: Samples (held at 4 °C) were injected (50 μl) using a Agilent 1100 Series HPLC system on a NovaPak (Waters) octadecylsilane (C18) 3.9 mm × 100 mm (4 μm) column (held at 25 °C) with a flow rate of 1.0 ml min^−1 using a gradient mobile phase of (A) H2O and (B) CH3CN as follows (all in % B, v/v): 0 min, 70%; 10 min, 100%; 35.5 min, 100%; 37 min, 30%; and 40 min, 70%). The flow rate was increased to 1.5 ml min^−1 (from the 10 min to 10.5 min interval) to decrease the retention of cholesterol and was later returned to 1.0 ml min^−1 (from the 35 min to 35.5 min interval) to prepare for the next injection. The column eluate was mixed (1:2, v/v) with FlowLogic U scintillation cocktail (LabLogic) and radioactivity (^3H) was detected using a β-RAM Model 5 radioflow detector (IN/US, LabLogic). Analytes were quantitated on the basis of their ^3H peak areas relative to the summed radioactivity of the four compounds of interest.
Figure S13. Steady-state kinetic assay of P450 11A1 with [1,2-^3H]-cholesterol. The enzyme reaction was performed in triplicate as described for the steady-state LC-MS assays, but with the use of ^3H-cholesterol (2 mCi mmol^-1) as the substrate. Product (^3H-pregnenolone) was detected by radio-HPLC as described (Experimental Methods). The highest rate measured was 6.7 ± 0.4 nmol product min^-1 (nmol P450)^-1.

[2] = molecular target: T2, human cytochrome P450 11A1 (human, UniProt P05108 40-521); experiment: other fluorescence titration; preformed 1:1 complex of P450 11A1 and cholesterol titrated into Alexa 488-Adx (50 nM) in 100 mM potassium phosphate pH 7.4; quenching of fluorescence (excitation 493 nm, emission 500-600 nm); quadratic fit; with cholesterol (equimolar to P450); conditions: both partners purified
T2 construct: cytochrome P450 11A1, human, recombinant, codon-optimized insert in pET23C(+); In one titration it was added as a preformed 1:1 complex with cholesterol; also called CYP11A1; P450scc; source: E. coli C41(DE3) with GroES/GroEL, purified (CHAPS solubilisation, Ni-NTA, dialysis)
T2 sequence (looked up): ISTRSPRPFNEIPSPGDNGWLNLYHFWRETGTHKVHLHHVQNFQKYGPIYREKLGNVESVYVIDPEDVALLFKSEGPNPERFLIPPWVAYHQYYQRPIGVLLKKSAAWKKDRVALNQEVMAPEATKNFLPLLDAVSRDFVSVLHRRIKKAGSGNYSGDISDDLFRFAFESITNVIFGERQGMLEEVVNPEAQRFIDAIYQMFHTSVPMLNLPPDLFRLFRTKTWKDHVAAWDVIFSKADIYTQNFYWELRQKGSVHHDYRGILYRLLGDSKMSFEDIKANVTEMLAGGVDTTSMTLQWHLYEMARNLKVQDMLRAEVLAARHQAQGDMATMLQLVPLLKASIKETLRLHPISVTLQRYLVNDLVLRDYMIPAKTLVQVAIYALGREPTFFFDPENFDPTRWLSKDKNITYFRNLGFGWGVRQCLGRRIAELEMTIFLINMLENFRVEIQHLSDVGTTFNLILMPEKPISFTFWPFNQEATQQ

[3] = molecular target: T2, human cytochrome P450 11A1; experiment: other fluorescence titration; P450 11A1 (0-0.4 uM) titrated into Alexa 488-Adx (50 nM) in 100 mM potassium phosphate pH 7.4; quenching of fluorescence (excitation 493 nm, emission 500-600 nm); quadratic fit; without cholesterol; conditions: both partners purified
human P450 11A1 [4] = system: human P450 11A1; parameters: method as in PMID 33271253; conditions: surface plasmon resonance, human ref 46; read-out: Kd of P450 11A1-Adx complex, without sterol; cited from earlier work
bovine P450 11A1 = system: bovine P450 11A1; parameters: method as in PMID 15181009; conditions: surface plasmon resonance, bovine ref 47; read-out: Kd of P450 11A1-Adx complex, without sterol; cited from earlier work

Molecule: [3H]C1C([3H])[C@@]2(C)C(=CC[C@H]3[C@@H]4CC[C@H]([C@H](C)CCCC(C)C)[C@@]4(C)CC[C@@H]32)C[C@H]1O (some centres unmarked) [[1,2-^3H]-cholesterol, [1,2-^3H]-Cholesterol]
highest rate measured (human P450 11A1 [1]): 6.7 ± 0.4 nmol product min^-1 (nmol P450)^-1

Kd [2]: 8.2 nM
Kd [3]: 38 nM
B1: Alexa Fluor 488-labeled adrenodoxin (natural protein, bovine, UniProt P00257 59-186, looked up)
chain: SSSEDKITVHFINRDGETLTTKGKIGDSLLDVVVQNNLDIDGFGACEGTLACSTCHLIFEQHIFEKLEAITDEENDMLDLAYGLTDRSRLGCQICLTKAMDNMTVRVPDAVSDARESIDMGMNSSKIE
modifications: Alexa Fluor 488 label (site not stated)
notes: also called Alexa 488-Adx; Adx

B2: Adx: adrenodoxin, soluble iron-sulfur electron donor protein (recombinant bovine); used fluorescently labeled as Alexa 488-Adx (protein)
chain: SSSEDKITVHFINRDGETLTTKGKIGDSLLDVVVQNNLDIDGFGACEGTLACSTCHLIFEQHIFEKLEAITDEENDMLDLAYGLTDRSRLGCQICLTKAMDNMTVRVPDAVSDARESIDMGMNSSKIE
modifications: Alexa Fluor 488 label (site not stated)
notes: adrenodoxin, soluble iron-sulfur electron donor protein (recombinant bovine); used fluorescently labeled as Alexa 488-Adx
Kd (human P450 11A1 [4]): 24 nM
Kd (bovine P450 11A1): 13.4 nM
